From US20190177416A1 (NANOMAB TECHNOLOGY, published 2019)

T1: PD-L2 (coated antigenic protein) (UniProt Q9BQ51 20-220, limits assumed)
T1 sequence (looked up): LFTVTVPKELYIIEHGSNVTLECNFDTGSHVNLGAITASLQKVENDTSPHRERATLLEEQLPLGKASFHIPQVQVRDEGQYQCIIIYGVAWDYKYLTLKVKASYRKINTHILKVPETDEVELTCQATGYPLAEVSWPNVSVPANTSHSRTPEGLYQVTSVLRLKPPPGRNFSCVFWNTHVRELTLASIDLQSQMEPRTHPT


Key:
[1] = biological target: T2, human PD-L1 protein (coated antigen) (human, UniProt Q9NZQ7 19-238, limits assumed); assay: PE-ELISA on coated PD-L1
T2 construct: Construct not described; also called PD-L1 antigen; antigenic protein PD-L1
T2 sequence (Q9NZQ7 19-238 limits assumed): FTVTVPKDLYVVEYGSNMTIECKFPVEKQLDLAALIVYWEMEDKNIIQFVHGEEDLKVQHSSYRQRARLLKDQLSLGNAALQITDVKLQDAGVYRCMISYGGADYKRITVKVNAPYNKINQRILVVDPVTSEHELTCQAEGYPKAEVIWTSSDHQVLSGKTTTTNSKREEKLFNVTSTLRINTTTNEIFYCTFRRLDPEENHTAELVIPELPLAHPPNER

[2] = biological target: T2, human PD-L1 protein (coated antigen); assay: PE-ELISA, crude extract on coated PD-L1
Procedure, shortened: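 Phage clones were expressed with 1 mmol IPTG at 28° C overnight, and crude periplasmic antibody was applied to PD-L1-coated plates for 1 h at room temperature. Detection used anti-HA, then an alkaline phosphatase conjugate, read at 405 nm. A sample/control OD ratio above 3 marked a positive clone.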

[3] = biological target: T2, human PD-L1 protein (coated antigen); assay: ELISA, purified nanobody 10 ug/mL, coated PD-L1 against coated PD-L2
Procedure: (§1) (1) Coated antigenic proteins PD-L1 and PD-L2: 0.5 μg per well (5 μg/mL, 100 μL), packaged NaHCO₃ (100 mM, pH8.2) was used as a blank control and overnight at 4° C. (2) Wash the cells three times with PBST the next day, add 200 μL of 1% BSA to block at room temperature for 2 hours. (3) Each purified nanobody was diluted to 10 μg/mL, and 100 pt of each of the purified nanobodies was incubated with the coated PD-L1, PD-L2 and the blank control group, and reacted at room temperature for 1 hour. (4) Unbound antibody was washed away with PBST, and 100 μL of mouse anti-HA tag antibody (1:2000 dilution) was added and placed at room temperature for 1 hour. (5) Unbound antibody was washed away with PBST, and anti-mouse alkaline phosphatase conjugate (1:2000 dilution) was added and placed at room temperature for 1 hour. (6) Wash the unbound antibody with PBST, add alkaline phosphatase coloring solution, and read the absorbance at 405 nm on an ELISA apparatus. The specificity of the nanobody was judged based on the absorption value.

[4] = biological target: T2, human PD-L1 protein (coated antigen); assay: ELISA, purified nanobody 10 ug/mL on coated PD-L1, anti-HA detection
Procedure: as §1

[5] = biological target: T1, PD-L2 (coated antigenic protein); assay: ELISA, purified nanobody 10 ug/mL on coated PD-L2, anti-HA detection
Procedure: as §1

Binder	binding result [1]	OD ratio (experimental group (A405 nm)/control group (A405 nm)) [2]	OD ratio (PD-L1/PD-L2) [3]	ELISA absorbance (A405 nm) [4] [A405 nm]	ELISA absorbance (A405 nm) [5] [A405 nm]
SEQ ID NO 141 (VHH, pMECS-expressed; also called VHH numbered 141) VHH: QVQLQESGGGSVQAGGSLRLSCTAPGFTSNTCAMAWFRQAPGKEREFVSSMSTVGSTRFADSVKGRFTISKDEAKDTVYLQMNSLKPEDTAMYFCKTYACRECTGRYCRTAPDAWGQGTQVTVSS	binds				
SEQ ID NO 143 (VHH, pMECS-expressed; also called VHH numbered 143) VHH: QVQLQESGGGSVQAGGSLRLSCTAPGFTSNTCAMAWYRQAPGKEREFVSSISTVRTTAYADSVKGRFTISKDEAKATVYLQMNSLKPEDTAMYFCKSYACRDCIGRYCRTAPDAWGQGTQVTVSS	binds				
SEQ ID NO 9 (VHH, pMECS-expressed; also called anti-PD-L1 nanobody No. 9; VHH numbered 9) VHH: QVQLQESGGGSVQAGGSLRLSCAASGYTYSNDGMGWFRQIPGKEREGVAAISPTGRRTEYADSVQGRFTISRDNAKNMLSLQMNSLKPEDTGMYYCAREGSGSFSLQNSAVRSWGQGTQVTVSS		> 20	27.2	3.56	0.131
SEQ ID NO 3 (VHH, pMECS-expressed; also called anti-PD-L1 nanobody No. 3; VHH numbered 3) VHH: QVQLQESGGGSVQTGGSLRLSCAASTSLYSYNYMAWFSQAPGKGREGVAAVYVGDGRPYYADSVKGRFTISLDSAKNAVYLQMNSLKPEDTAMYYCAAAPGPLSHNYWYTSANYDYWGQGTQVTVSS		> 20	21	2.36	0.112
SEQ ID NO 5 (VHH, pMECS-expressed; also called anti-PD-L1 nanobody No. 5; VHH numbered 5) VHH: QVQLQESGGGSVQTGGSLRLSCAASTSIYSNNYMAWFSQAPGKGREGVAAVYIDDGRPYYADSVKGRFTISLDSAKNTVYLQMNGLKPEDTAMYYCAAAPGPLSRNYWYTSANYDYWGQGTQVTVSS		> 20	26.4	3.38	0.128
SEQ ID NO 4 (VHH, pMECS-expressed; also called anti-PD-L1 nanobody No. 4; VHH numbered 4) VHH: QVQLQESGGGSVQTGGSLRLSCAASPSIYSANYMAWFSQAPGKGREGVAAVYIGDGRPYYADSVKGRFTISLDSAKNTVYLQMNSLKPEDTAMYYCAAAPGPLGHNYWYTSANYDYWGQGTQVTVSS		> 20	25.6	3.51	0.137
SEQ ID NO 7 (VHH, pMECS-expressed; also called anti-PD-L1 nanobody No. 7; VHH numbered 7) VHH: QVQLQESGGGSVQTGGSLRLSCACSTSIYSTNYMAWFSQAPGKGREGVAAVYIGDGRPYYADSVKGRFTISLDSAKNTVYLQMNSLKPEDTAMYYCAAAPGPLSRNYWYTSANYDYWGQGTQVTVSS		> 20	29.5	3.51	0.119
SEQ ID NO 148 (VHH, pMECS-expressed; also called VHH numbered 148) VHH: QVQLQESGGGSVQAGGSLRLSCAASGYSYNIDYMAWFRQAPGKEREGVAAIYTGSRRTYYSDSVKGRFAISQDNADNTVYLQMNALKPEDTAMYFCAALVSRPGRSWDKNEYRYWGQGTQVTVSS	binds				
SEQ ID NO 147 (VHH, pMECS-expressed; also called VHH numbered 147) VHH: QVQLQESGGGSVQAGGSLRLSCAASGYTSRPNFMVWFRQAPGKEREAVAGIYTVTGGTLYSDPVKGRFTISQDKAKNTVYLQMNSLNPEDTAMYYCAVKWYGGSWSDAATFRTWGRGTQVTVSS	binds				
SEQ ID NO 8 (VHH, pMECS-expressed; also called anti-PD-L1 nanobody No. 8; VHH numbered 8) VHH: QVQLQESGGDSVQAGGSLRLACKVPGFTSNTCAMAWFRQAPGKEREFVSSISTGGTTGYAESAKGRFTLSKDEAKDTVYLQMNSLKPEDTAMYFCKSYACRTCIGRYCRTAPDAWGQGTQVTVSS		> 20	25.3	3.37	0.133
SEQ ID NO 149 (VHH, pMECS-expressed; also called VHH numbered 149) VHH: QVQLQESGGGLVQAGGSLRLSCTASGFTFDDYSMGWFRQAPGKEREGISCIDWSGGRTNYGDSVKGRFTISRDNAKNTLYLQMNSLKPEDTAMYYCAANSAYSSCSLSTTHYKYWGQGTQVTVSS	binds				
SEQ ID NO 2 (VHH, pMECS-expressed; also called anti-PD-L1 nanobody No. 2; VHH numbered 2) VHH: QVQLQESGGGSVQAGGSLRLSCAVSRYSASNNVIKWMGWFRQAPGKEREGVAALYTSGGNTYYADSVKGRFTISRDYSENTVSLQMNNLKPEDTGMYYCATTVGTVLAGPLSARKYNYWGQGTQVTVSS		> 20	31.8	3.63	0.114
SEQ ID NO 142 (VHH, pMECS-expressed; also called VHH numbered 142) VHH: QVQLQESGGGSVQTGGSLRLSCAVSRYSASNNVIKWMGWFRQAPGKEREGVAALYTSGGNTYYADSVKGRFTISRDYSENTVSLQMNNLKPEDTGMYYCAATVGTVLAGPLSARKYNYWGQGTQVTVSS	binds				
SEQ ID NO 34 (VHH, pMECS-expressed; also called VHH numbered 34) VHH: QVQLQESGGGSVQAGGSLRLSCAASGYTRSLYCMGWFRQAPGREREGVAHVYTGDGSPYYADSVKGRFTISQDNGESTLYLQMNNLKPEDTAMYYCAAGTSALSRPYGPISYGYWYWGQGTQVTVSS		> 20			
SEQ ID NO 6 (VHH, pMECS-expressed; also called anti-PD-L1 nanobody No. 6; VHH numbered 6) VHH: QVQLQESGGGSVQAGETLRLSCTASGDTFDASGVGWFRQVSGNECDLVSSINRDGTTYYAPSVAGRFTMSQNNAKNTVYLQMNSLKPDDTAVYYCATDPAVGIVVRSTCRGPFGYWGQGTQVTVSS		> 20	29.9	3.44	0.115
SEQ ID NO 11 (VHH, pMECS-expressed; also called anti-PD-L1 nanobody No. 11; VHH numbered 11) VHH: QVQLQESGGGSVQAGETLRLSCTASGDTFDDSGVGWFRQVSGNECDLVSSINRDGTTYYAPSVAGRFTISQNNAKNTVYLQMNSLKPDDTAVYYCATVPAVGIVVRITCRGPFGYWGQGTQVTVSS		> 20	25	2.9	0.116
SEQ ID NO 12 (VHH, pMECS-expressed; also called anti-PD-L1 nanobody No. 12; VHH numbered 12) VHH: QVQLQESGGGSVQAGGSLRLSCAASGYTRSSHCMVWFRQAPGKEREGVALIYTGSGSTYYADSVKGRFTISQDNAKKTLYLQMNSLKPEDTAMYYCAAGTSSSSCPGLLGPPRYYNWGQGTQVTVSS		> 20	23.9	2.99	0.125
SEQ ID NO 144 (VHH, pMECS-expressed; also called VHH numbered 144) VHH: QVQLQESGGGSVQAGQSLRLSCTASGYTDSRYCMGWFRQAPGKERERVTTIHTGTGITYYADSVKGRFSISQDNAQNTMYLQMNSLEPEDTAMYYCATTDYVYSASASWCNGYGVFNNWGQGTQVTVSS	binds				
SEQ ID NO 71 (VHH, pMECS-expressed; also called VHH numbered 71) VHH: QVQLQESGGGLVQPGGSLRLSCAASGFTFSSYDMSWVRQAPGKGIEWVSVINSGGSNTDYADSVKGRFTISRDNAKNTLYLQMNSLKTEDTAVYYCATAWMGYSDYLDGIARGQGTQVTVSS		> 20			
SEQ ID NO 139 (VHH, pMECS-expressed; also called VHH numbered 139) VHH: QVQLQESGGGSVQAGGSLRLSCVASGYTNCRYDMSWYRQAPGKEREFVSSIDSEGVARHADSVKGRFGISQDNAKSTLYLQMNSLKPEDTAVYYCKTDYITCRFGSWSDSTWGQGTQVTVSS	binds				
SEQ ID NO 140 (VHH, pMECS-expressed; also called VHH numbered 140) VHH: QVQLQESGGGSVQAGGSLRLSCVASGYTNCRYDMSWYRQAPGKEREFVSSIDSEGVARHADSVKGRFGISQDNAKSTLYLQMNSLKPEDTAMYYCKMDYIRCRFGSWSESTWGQGTQVTVSS	binds				
SEQ ID NO 10 (VHH, pMECS-expressed; also called anti-PD-L1 nanobody No. 10; VHH numbered 10) VHH: QVQLQESGGGSVQAGGSLRLSCTAPGFTSKTCAMRWYRQAPGKEREFVSAISTVGTTTYADSVKGRFIISKDEAKDTVYLQINSLKPEDTAMYSCKTFACRHCIGQSCRTEPDYWGQGTQVTVSS		> 20	28.6	3.34	0.117
